Source: patent US20170051285A1, “COMPOSITIONS AND METHODS OF USING SAME FOR REDUCING RESISTANCE TO MOSQUITO LARVICIDES” (priority 2014, published 2017)

System: Ae. aegypti adult females, RJ strain
Assay: dsRNA treatment of larvae followed by pyrethroid (deltamethrin) adulticide bottle bioassay
Format: in vivo, Aedes aegypti
Conditions: soaking 0.1 μg/μL 24 hours plus 4 feedings with food-containing dsRNA, deltamethrin 0.5 μg/bottle
Description: Third instar larvae were treated (in groups of 100 larvae) in a final volume of 3 mL of dsRNA solution in autoclaved water (0.5 μg/μL for sodium channel (AAEL008297), PgP (AAEL010379) and Ago3 (AAEL007823) dsRNA, or 0.1 μg/μL for CYP9J26 (JF924909.1). The control group was kept in 3 ml sterile water only. Larvae were soaked in the dsRNA solutions for 24 hr at 27° C., and then transferred into new containers (300 larvae/1500 mL of chlorine-free tap water), which were also maintained at 27° C., and were provided 6 mg/100 mL lab dog/cat diet (Purina Mills) suspended in water as a source of food on a daily basis. As pupae developed, they were transferred to individual vials to await eclosion and sex sorting. For bioassays purpose only females up to five days old were used. See FIG. 11 for detailed explanation of this experiment.
After soaking in the dsRNA solutions for 24 hr at 27° C., the larvae were transferred into new containers (300 larvae/1500 mL of chlorine-free tap water), and were provided agarose cubes containing 300 μg of dsRNA once a day for a total of four days. The larvae were reared until adult stage. […]
Bottles were prepared following the Brogdon and McAllister (1998) protocol [Brogdon and McAllister (1998) Emerg Infect Dis 4:605-613]. […] At 15, 30 and 45 min intervals, the number of live and dead mosquitoes in each bottle was recorded. […]

B1: CYP9J26 dsRNA: dsRNA targeting Cytochrome p450 (CYP9J26) JF924909.1, SEQ ID NO: 203 (nucleic acid)
chain: CTTCAACGACTTCGTCCGATCAATTTACAACAAATATCCTGGAGTGAAGGTTTTCGGAATGTTCGAGACGATCACGCCGTTCTTCGTGATTCGCGATCCGGAGTTGATCAAGCAGATCGGCATCAAGGATTTCGATCACTTCGTTGACCACCGTCCGACGTTCGGACTGGACGATGAAACGGCGGAGCATCCGAAGGCGCTGTTCCGCAAGACGCTGTTCTCGATGACCGGTCAACGGTGGAAGGAGATGCGCGCTACGCTGAGTCCGGCTTTTACCGGCAGTAAGATGCGACAGATGTTCTCGCTGATGAGCGAATGCTGCGACGAAATGATGAAGCACTACCTGGACAAGGCGAAGGGCACGGGAAGGGTGGAAGTCGAAATGAAGGACTTGCTGAGTCGAATCACTATCAATGTGATTGCGTCGTGTGCTTTTGGAATCAAGGTGGAC
modifications: double stranded RNA
susceptibility of adult mosquitoes to deltamethrin (FIG. 18): more sensitive to deltamethrin during the first 15 minutes
susceptibility of adult mosquitoes to deltamethrin (FIG. 18) (listed as CYP9J29 dsRNA): affects the susceptibility
